Measured values from PMC12634842.

Biological target: Cys151 (UniProt position 151, SMGEKCVLHVM)
Test: chemical modification (fluorescence detection)
Conditions: 25 °C; 15 mM acetate/15 mM MES/30 mM Tris; Reduced (DTT-treated, desalted) free BTB domain, folded, no ligand

How did the pKa turn out when “Kelch-like ECH-associated protein 1 (KEAP1), BTB domain (Homo sapiens; S172A)” was run?
The pKa was 6.90 ± 0.05.
